# B1: seribantumab (antibody, human IgG2, lambda, V domains shown)
# VH: EVQLLESGGGLVQPGGSLRLSCAASGFTFSHYVMAWVRQAPGKGLEWVSSISSSGGWTLYADSVKGRFTISRDNSKNTLYLQMNSLRAEDTAVYYCTRGLKMATIFDYWGQGTLVTVSS
# VL: QSALTQPASVSGSPGQSITISCTGTSSDVGSYNVVSWYQQHPGKAPKLIIYEVSQRPSGVSNRFSGSKSGNTASLTISGLQTEDEADYYCCSYAGSSIFVIFGGGTKVTVLG
# Columns and labels:
# [1] = system: OV-10-0050 PDX tumors; experiment: HGSOC ovarian PDX model efficacy (CLU-NRG1); type: in vivo, mice; set-up: average tumor volume at the time of the last treatment: unit not given beside the values; settings: afatinib 5 mg/kg once daily, day 27
# Text: IHC characterization of the OV-10-0050 PDX model (FIG. 6A). H&E staining, WT1, and TP53 IHC (left to right). […] (FIG. 6B). Treatment was terminated on day 27 and animals were monitored for tumor regrowth until tumors reached maximum allowable size or until 90 days after treatment initiation. Results represent the mean tumor volume ±SEM. A zoom-in view on tumor volumes during the last 40 days of monitoring of seribantumab-treated groups (right). […] Change in the volume of individual tumors (day 27 vs. volume at start of treatment) (FIG. 6C).
# Crushed PDX tumor samples were mixed with Matrigel (50%) and injected into the subcutaneous flank of 6-week-old female NSG (LUAD-0061AS3) or Balb/c nude (OV-10-0050) mice. When tumors reached approximately 100-150 mm3, mice were randomly assigned to groups of 5-8 and treatment was commenced. There were 2 mice per group with bilateral flank tumors for the protein phosphorylation/expression study in the LUAD-0061AS3 PDX model. Drugs were administered once, and then tumors were collected at 2, 24, and 168 hours posttreatment. Afatinib was administered by oral gavage once daily as a suspension (in 0.5% methylcellulose-0.4% Tween-80) on a 5-days-on and 2-days-off schedule. […] Mice were observed daily throughout the treatment period for signs of morbidity and mortality. Tumor length and width and animal weights were measured twice weekly. Tumor volume was calculated using the empirical formula V=length×width 2×0.52. The percentage change in tumor volume of each tumor was calculated using the formula [(V2−V1)/V1)]×100, where V1 is the starting tumor volume and V2 is the final tumor volume.
# RT-PCR confirmed the presence of the CLU-NRG1 fusion. Xenograft tissue morphology and IHC markers (positive for WT1 and strong nuclear staining for TP53) were consistent with HGSOC histology (FIG. 6A; Kobel M, et al., Int. J. Gynecol. Pathol. 2016; 35:430-41). […] As with the above experiments in the NSCLC PDX model, the doses of seribantumab used here were lower than the dose that is used in patients. Treatment was terminated at day 27 and tumor growth was monitored for an additional 63 days (90 days after initiation of treatment or once tumors reached the maximum allowable size). The tumor volume as a function of time is illustrated in FIG. 6B, and the AUC was computed for each group to compare tumor volumes between groups at the last date of treatment. […] Forty-one days after treatment began, mice bearing vehicle- and afatinib-treated tumors were sacrificed because of the high tumor burden.
# [2] = system: LUAD-0061AS3 cells; experiment: Caspase 3/7 enzymatic activity in cell homogenates (apoptosis); type: cell-based, human
# Experimental: (§1) MCF-7 cells were treated with the indicated concentrations of NRG1-b1 for 10 minutes, and then cell extracts were prepared and subjected to Western blotting for the indicated phosphorylated (p) or total (t) proteins (FIG. 2A). […] Data were analyzed by nonlinear regression using GraphPad Prism 8. There were four replicates of each condition and data represent the mean±SD. […] Cells were counted on the days indicated on the graph. Results represent the mean±SD of duplicates of each condition in one representative experiment. MDA-MB-175-VII (FIG. 2D) and LUAD-0061AS3 (FIG. 2E) cells were treated with the indicated concentrations of inhibitors for 48 hours, and then caspase 3/7 enzymatic activity was measured in cell homogenates. Carfilzomib (20S proteasome inhibitor) was used as a positive control for apoptosis. Results are the mean±SEM of three independent experiments in which each condition was assayed in three replicate determinations. The absence of an error bar for any data point indicates an error value too small to be represented on the scale used.
# (§2) As a positive control for activation of caspase 3/7, 1 μmol/L carfilzomib was used.
# [3] = system: MDA-MB-175-VII cells; experiment: as above; type: cell-based, human
# Experimental: as §1, §2
# [4] = molecular target: human ERBB3 (HER3) (human, UniProt P21860 20-1342); experiment: cell-based or functional assay
# [5] = 1 μmol/L carfilzomib, positive control
# human ERBB3 (HER3), sequence (P21860 other isoform, or with tags, fused parts or gaps): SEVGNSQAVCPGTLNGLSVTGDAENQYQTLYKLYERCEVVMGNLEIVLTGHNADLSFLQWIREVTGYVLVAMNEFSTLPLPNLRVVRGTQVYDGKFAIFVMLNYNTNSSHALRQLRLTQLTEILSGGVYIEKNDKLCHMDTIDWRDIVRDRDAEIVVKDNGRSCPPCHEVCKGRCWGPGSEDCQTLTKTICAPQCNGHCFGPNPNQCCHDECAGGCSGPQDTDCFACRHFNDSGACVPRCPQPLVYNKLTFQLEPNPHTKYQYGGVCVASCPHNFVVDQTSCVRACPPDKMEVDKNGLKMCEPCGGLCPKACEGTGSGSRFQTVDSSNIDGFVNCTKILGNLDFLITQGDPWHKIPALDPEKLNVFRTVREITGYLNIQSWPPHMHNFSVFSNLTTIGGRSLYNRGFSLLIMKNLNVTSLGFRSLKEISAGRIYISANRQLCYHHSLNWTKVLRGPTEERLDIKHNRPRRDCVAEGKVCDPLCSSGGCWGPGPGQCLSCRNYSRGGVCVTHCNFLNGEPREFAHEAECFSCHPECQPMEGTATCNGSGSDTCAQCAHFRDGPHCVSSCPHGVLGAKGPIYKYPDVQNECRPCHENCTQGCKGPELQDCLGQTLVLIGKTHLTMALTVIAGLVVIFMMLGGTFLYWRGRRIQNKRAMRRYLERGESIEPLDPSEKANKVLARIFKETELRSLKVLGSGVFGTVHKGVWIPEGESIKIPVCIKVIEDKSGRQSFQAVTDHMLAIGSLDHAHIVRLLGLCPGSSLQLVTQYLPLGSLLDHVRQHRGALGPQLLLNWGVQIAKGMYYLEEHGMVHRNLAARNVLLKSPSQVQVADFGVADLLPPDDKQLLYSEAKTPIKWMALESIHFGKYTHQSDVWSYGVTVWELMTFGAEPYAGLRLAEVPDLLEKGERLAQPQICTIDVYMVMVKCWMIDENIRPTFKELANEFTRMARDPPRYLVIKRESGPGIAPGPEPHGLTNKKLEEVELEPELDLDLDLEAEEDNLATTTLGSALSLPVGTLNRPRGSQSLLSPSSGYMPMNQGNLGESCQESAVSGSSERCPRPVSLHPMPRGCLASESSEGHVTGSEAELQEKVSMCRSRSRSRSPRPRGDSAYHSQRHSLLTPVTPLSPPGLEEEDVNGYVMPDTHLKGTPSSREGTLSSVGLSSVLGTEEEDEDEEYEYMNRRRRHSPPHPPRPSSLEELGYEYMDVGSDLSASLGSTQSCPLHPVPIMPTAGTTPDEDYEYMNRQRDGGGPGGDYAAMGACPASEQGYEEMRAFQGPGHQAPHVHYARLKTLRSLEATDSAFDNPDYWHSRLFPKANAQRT
molecule,measurement,setting,value
CN(C)C/C=C/C(=O)Nc1cc2c(Nc3ccc(F)c(Cl)c3)ncnc2cc1O[C@H]1CCOC1 [afatinib],average tumor volume at the time of the last treatment,[1],786.4±190.5
same,caspase 3/7 activity,"[2]; highest concentration used, 48 hours",3.3±0.1 fold above control
same,caspase 3/7 activity,"[3]; 10 μmol/L, 48 hours",14.1±3.6 fold above control
CC(C)C[C@H](NC(=O)[C@H](CCc1ccccc1)NC(=O)CN1CCOCC1)C(=O)N[C@@H](Cc1ccccc1)C(=O)N[C@@H](CC(C)C)C(=O)[C@@]1(C)CO1 [carfilzomib],caspase 3/7 activity,[2]; [5],5.8±1.3 fold above control
same,caspase 3/7 activity,[3]; [5],16.6±1.9 fold above control
B1,"IC50 for growth inhibition, HBECp53 cells (nontumor, no NRG1 fusion, control), 96 h, AlamarBlue viability",[4],203 µM
same,"IC50 for growth inhibition, LUAD-0061AS3 cells (SLC3A2-NRG1 fusion), 96 h, AlamarBlue viability",[4],1.4 µM
same,"IC50 for growth inhibition, MCF-7 cells (no NRG1 fusion, control), 96 h, AlamarBlue viability",[4],45.2 µM
same,"IC50 for growth inhibition, MDA-MB-175-VII cells (DOC4-NRG1 fusion), 96 h, AlamarBlue viability",[4],0.02 µM
same,"caspase 3/7 activity, LUAD-0061AS3 cells, highest concentration used, 48 h",[4],4 fold above control
same,"caspase 3/7 activity, MDA-MB-175-VII cells, 10 µmol/L, 48 h",[4],12.7 fold above control

# — US20220288204A1, “DOSAGE AND ADMINISTRATION OF ANTI-ERBB3 (HER3) MONOCLONAL ANTIBODIES TO TREAT TUMORS ASSOCIATED WITH NEUREGULIN 1 (NRG1) GENE FUSIONS” (ELEVATION ONCOLOGY, INC., priority 2021, published 2022)
